Assay results published in a protein production outcome set (Wang et al. 2014).

Assay: label from the status in PepcDB records

Sequence | protein production
MSGGPVKTPFLSFIIPAYNEEQRLPSYLERVIGFFAGQSYSFEIVVVDDGSSDGTAALVKALMAQHSCLRLEALDRNRGKGFAVKTGMSAAKGQLRVFADADGATPVEEIRRLLDAREQGADIAIGSRAMRSDECIVQGRVHRKIMGTVFNGLIRALAVRGIHDSQCGFKLFTASAAEDIFPRQRITGFGFDVELLFLARRLGYVVVEVPVNWSDVEGTKVRLVRDSFRMLGEVLRIRFTNLTGGYGDIPGKTLEHHHHHH | failed
MSGIIATYLIHDDSHNLEKKAEQIALGLTIGSWTHLPHLLQEQLKQHKGNVIHVEELAEHEHTNSYLRKKVKRGIIKIEYPLLNFSPDLPAILTTTFGKLSLDGEVKLIDLTFSDELKKHFPGPKFGIDGIRNLLQVHDRPLLMSIFKGMIGRNIGYLKTQLRDQAIGGVDIVKDDEILFENALTPLTKRIVSGKEVLQSVYETYGHKTLYAVNLTGRTFDLKENAKRAVQAGADILLFNVFAYGLDVLQSLAEDDEIPVPIMAHPAVSGAYSASKLYGVSSPLLLGKLLRYAGADFSLFPSPYGSVALEKEEALAISKYLTEDDASFKKSFSVPSAGIHPGFVPFIVRDFGKDVVINAGGGIHGHPNGAQGGGKAFRTAIDATLQNKPLHEVDDINLHSALQIWGNPSYEVKL | not failed
MSGKTSITSRSDEFQRQIDHKEMPRDHQIERHTHIHTTRYRGGSLVEEVIEKLERFKVRTVNILVGGEDDEQKK | failed
MSGLAQRSDDPWLAALPAAVLYGAWAAYANQDGGLAGMGVAALLQGAASLLATRFGLYLLQCLGRRHGLAQRQAPLLVVLLLTAPMAALHWLSGTPHPLASVAPSFVIGWLYFALWARRRPGRRQASGA | failed
MSGLVTGREIVQTARDENVPFMGASIAYYAIASIVPLLALLLAALSTFGGTVTLLELLRTVLSENGQVILTELLENTRGHGATGTLSLVLVVWSGSKVFRSLSVAFTEVYGEVTDISLPAQLVRSAVVMGVLLGAVVFLSATSVALTYVKFQVPYPTLVGNVAAFAALGVAFVPIYYVLPPVKTSLTHVAPGALFAAAGWITIQVGFFYYAGTAGRYAAYGYLGALLLFVTALYLAAIVLLLGVVVNATLDW | failed
MSGMSAAARWTLIASVIAGVSYVASWGLTLPPGVETAWKGAGVGLLAIHAALRARSLDGWLLAAVMALGTGGDVLLETHGLTVGAISFLLGHVVASGLYLRHRNAVSLAPLALIPVVVAVSFLLPTDRAGAPGIALYSLFLAVMAAMALMSRFPFKTVGLGALMFVVSDLLIFGRLGPLPDNLATGLGVWGLYYFGQLLICLGVAGALAHPSTDLPGEGRGPDSA | failed
MSGPERLLTRAPTHRPERPRLTLVSRRVMRTIGWLLLLIGGLAGGLSSAAGQPSAPPDTIRGDAVAPSPAPASGDLAGQGGALEATPLFYVAEDAATLHNRSGLNAPVTRLAMRTPVRRLSCEADWCRVRTDGGTTGYVAADALSNVWIRVSKRKRRVYVYRGAELAHAFEADMAYNAFADKKRNGGKTRPDHWRTPEGTFYVVHKNPQSEFYKALVLNYPKVEDARRGLDAGLISRAQYEAIRQAQQEHRMPPMGTDLGGWIEIHGDGTGDATAWTQGCVAIRNGAMDVIWEQVRVGTPVLIE | failed
MSGPRAGFYRQELNKTVWEVPQRLQGLRPVGSGAYGSVCSAYDARLRQKVAVKKLSRPFQSLIHARRTYRELRLLKHLKHENVIGLLDVFTPATSIEDFSEVYLVTTLMGADLNNIVKCQAGAHQGARLALDEHVQFLVYQLLRGLKYIHSAGIIHRDLKPSNVAVNEDCELRILDFGLARQADEEMTGYVATRWYRAPEIMLNWMHYNQTVDIWSVGCIMAELLQGKALFPGSDYIDQLKRIMEVVGTPSPEVLAKISSEHARTYIQSLPPMPQKDLSSIFRGANPLAIDLLGRMLVLDSDQRVSAAEALAHAYFSQYHDPEDEPEAEPYDESVEAKERTLEEWKELTYQEVLSFKPPEPPKPPGSLEIEQ | failed
MSGQTFEKIGGMFLDKQRKEGKSKATLDKTAYHLKLANHDFGKKPITAITAPMILRTLRKVEAKGNYETAHRLRARIGSVFRYAVASGLAETDPTYALRDALIRPTRQHLEHHHHHH | failed
MSGRHLMYLDYLVPSWHEIESRVIAMVGYQSGGQFRTSLNEEVASLGLNLRRIEAVRTAFYHAEWQAAHMLRQRFADLDINSIIDELLRVVQQMAMIVVGSTITGGLLGATVGAFAGGAGTIPLAGAGAVMGLKVSGWILGALGLASIAEFFVEGLPRIGG | failed
MSGSNSSNHLHEREGTSEESREQSHKHSGLFNPRLFLHSLSHKFSHTPFHKHSHVHPHEHSHGHSHTHGRVDPSIIATQKGLWAVKWSFIGLMVTAVLQIFIVIMSGSVALLADTIHNFGDASTAIPLAIAFTLARRKPSKRFSYGYGRVEDLAGVIIVFLILFSAAVAGYESVTRFLNPRPVEHLQAVALAAIIGCIGNEVVAQFRMKVGKEIGSAALIADGYHARMDGFTSLAVLVGAVGVWLGYPILDPLIGMLITIAILKIVLDSSKLVFTRLLDGVEPEVLDQVKAIAEGVEGVCEVTDLRVRWIGHRLHAEINASVDPSLSVEEGHEIANAVREKLLENFSYLSGTTIHVDPVTASGECCHCGSESPDKRLGRQKRVLNVYPG | failed
MSHALRAVFLDHASLDLGDLDMRPLRAAFDELQLHAASQPQEVAARLHDARVAISNKVPIDAQCIAACPELELILISATGTNNIDLAAARERGIVVANCHGYGTPSVAQHTLALLLALATRLPDYQQAVRSGRWQQSSQFCLLDFPIVELEGKTLGLLGHGELGGAVARLAEAFGMRVLLGQLPGRPARADRLPLGELLPRVDALTLHCPLTEDTRGMLGSAELALMKPGAFLVNTARGGLVDEQALADALRGGHLGGAATDVLSVEPPRNGNPLLAPDIPRLIVTPHNAWGSREARQRIVGQLAENAEAWKAGR | failed
MSHGIKLLVSGDHACFTRPEMKAERVSYDVMTPSAARGILEAIHWKPAITWVIDAIHVLKPIRFQTLRRNEVGGKVPAGKVKSAMTKGTLDGLALLADEDRQQRATTLLVDVAYVIEAHFTLTDKAGPEDNPGKHLDIFTRRARKGQCFHQPCLGTREFPARFELIDGDRPIPAAVNRSEDLGFMLWDIDHAGDRSSMFFRARMDRGVVRVPAPSSAEIRR | failed
MSHNEESPGIGPGAGGQDSTTALIEAINIRSMSLIVLTSIASLYFIEWAQPVLLPLVVAVLISYALDPLVATLDRIHIPRPLGAALVLCTLIAILAAASVPLKQEAMAMLDKIPQAIKELQREDASTSEDEESIMEKAQIAAKQIEETAENREGKPAVQAGVTPVRVVDEPMDVRDYVIRNSPATIVLISQMFSVLLLVFFLLSVGKLYRRKIVRISGPSFRRMRKAARIMNELHHQVRRFLFVMVISALFVGILTWLAFLLLGVEQAALWGVVAGIASGVPYLGPFLVLVGSGVAAFLQFGELNTAVIVALTSLVITSIQGNLLMPWLTSYVSSLNAVAIFIGLLFWGWLWGPVGLIVATPILMIAKSVCDHVVNFRPVGELLGK | failed
MSHPHPELGRPPALPKGGLRVTPLGGLGEIGRNMTVFEYGGRLLIVDCGVLFPEEEQPGIDLILPDFTSIRDRLDDIEGIVLTHGHEDHIGGVPFLLREKPDIPLIGSKLTLALIEAKLQEHRIRPYTLEVAEGHRERVGPFDCEFVAVNHSIPDALAVAIRTPAGMVVHTGDFKMDQLPLDGRLTDLHAFARLSEEGIDLLLADSTNAEVPGFVPPERDISNVLRQVFANARKRIIVASFASHVHRIQQILDAAHEYGRRVAFVGRSMVRNMGIARDLGYLKVPPGLVVDVKTLDDLPDSEVVLVCTGSQGEPMAALSRMANRDHQIRIVNGDTVILASSLIPGNENAVYRVINGLTRWGANVVHKGNAKVHVSGHASAGELLYFYNICRPKNLMPVHGEWRHLRANAELGALTGVPHDRIVIAEDGVVVDLVEGKAKITGKVQAGYVYVDGLSVGDVGEPALKDRKILGDEGIISVFVVMDSSTGKITGGPHVQARGSGIEDSAFAAVLPKVTEALERSAQDGVVEPHQMQQLIRRTLGKWVSDTYRRRPMILPVVVEV | failed
MSHSVEAEDNKLVKTFKDIIPLTFGEEIGNSVSHGVAAFIALCALPYAAIHSFLEYGVLGAFSVSVYVISIFLMFISSTVYHAMPNQSSHKFILRIIDHSMIYVAIAGTYTPICLTLVGGWIGWSSMVVLWGITIWGILYKSLAKNVNHKLSLIMYLVMGWIGVLFLPTIIFDSSLLFMLFILFGGLAYTIGAWFYAQKNRPYFHMIWHFFIIVASVFHFVAIMYFM | failed
